How the values were obtained:
[1] = primates; cited from earlier work
[2] = Toxicology studies in primates; assay type: in vivo; conditions: Phase I and primate toxicology data taken together
Source text: (§1) In the absence of more accurate TI data, this value is used in the example. LY203638 is classified as a cardiovascular agent (since there are no prior data for hematologic agents and it is not antimicrobial). The limitations in acquiring appropriate data for LY203638 underscores the requirement to have unfettered access to the NCE's data in order to optimize Pharminator's predictive accuracy.

[3] = Phase I studies (Clinical Investigator's Brochure); assay type: in vivo, humans; conditions: from Phase I doses ranging from 12-48 μg/kg/hour (48/12)
Source text: as §1

For “Recombinant human activated protein C [LY203638]”, the “dose at which toxic effects observed” value [1] is listed as 8 mg/m^2/hour, the no-observed-adverse-effect level [1] is listed as 2 mg/m^2/hour and the “therapeutic index (TI)” value [2] is listed as “approximately 4”. For the same substance, the “therapeutic index (TI)” value [3] was “at least 4”.

From US20050021237A1, “Method and apparatus for evaluating new chemical entities” (priority 2003, published 2005)
